Marks after values point to notes of the source that are not given here.
Tests used:
mice = test: Forced swimming test (FST), anti-anxiety and stress effects; format: in vivo
Description: The anti-anxiety and stress effects of the Ziptamin product were investigated in mice using the forced swim test as reported in Porsolt, et al. (5). Healthy female mice, after acclimatization, were randomly divided into 4 groups, each group consisting of 6 mice, specifically: • Group 1 (Disease control): Mice were administered distilled water; • Group 2 (Control): Mice were administered fluoxetine at a dose of 6.5 mg/kg; • Group 3 (Test sample): Mice were administered Ziptamin at a dose of 25 ml/kg, divided into 2 doses/day 4 hours apart; • Group 4 (Test sample): Mice were administered Ziptamin at a dose of 50 ml/kg, divided into 2 doses/day 4 hours apart.
Mice were administered distilled water or fluoxetine at a volume of 10 ml/kg once a day or Ziptamin at doses of 25 ml/kg and 50 ml/kg for 7 consecutive days, divided into 2 doses/day, with a 4-hour interval between doses. On day 7, 60 minutes after administering distilled water, fluoxetine, or Ziptamin, mice were placed in a cylindrical glass tube (diameter 20 cm, height 50 cm) containing water at a temperature of 23-25° C. and a depth of 20 cm for 6 minutes. Initially, the mice struggled to escape the water, but then gradually adapted and performed only the necessary movements to keep their heads above water (immobility state). Filming lasted for 6 minutes, including 1 minute for the mice to stabilize and adapt, and the remaining 5 minutes to record the movements and behavior of the mice in the water, including swimming time (mice moving their limbs in the water as if rowing in the center of the cylinder), struggling (front limbs moving quickly and strongly in or above the water, with a tendency to swim and hit the front limbs against the walls of the cylinder), and immobility (ceasing to struggle, only performing necessary movements to keep the head afloat) (FIG. 1). The test sample reduced anxiety and stress, decreasing immobility time and increasing swimming and struggling time in the test mice. After 6 minutes, the mice were removed from the water and dried to prevent hypothermia. Results are presented as mean values±SEM (standard error of the mean). Differences between groups were analyzed using the Kruskal-Wallis test and Mann-Whitney test with SPSS 26.0 software. A statistical significance is considered when the p-value is <0.05.

[1] = system: mice with immunosuppression induced by cyclophosphamide; test: Immune stimulatory effects on mice with immunosuppression induced by cyclophosphamide; format: in vivo; conditions: for Body weight: CYP 150 mg/kg i.p. day 1
Description: The adult human dosage of Ziptamin is 0.5-1 bottle/day×250 ml/bottle A normal adult weighs about 60 kg→Mouse dose of Ziptamin: Dmouse=(0.5*250*11.76)/60=25 ml/kg and Dmouse=(1*250*11.76)/60=50 ml/kg. The dose conversion factor from adults to mice is 11.76 according to the Guidelines for preclinical and clinical testing of traditional medicine, herbal medicine issued by the Department of Science, Technology and Training-Ministry of Health under Decision No. 141/QD-K2DT dated 27 Oct. 2015.
Healthy male mice, after stable housing, were randomly divided into 5 groups, each with 8 mice: • Group 1 (Physiological): Mice were given distilled water; • Group 2 (Disease control): Mice were given distilled water; • Group 3 (Control): Mice were injected […] with filgrastim at a dose of 50 μg/kg; • Group 4 (Test group): Mice were given Ziptamin at a dose of 25 ml/kg, divided into 2 doses/day 4 hours apart; • Group 5 (Test group): Mice were given Ziptamin at a dose of 50 ml/kg, divided into 2 doses/day 4 hours apart; • Group 1 (physiological) were injected intraperitoneally with 0.9% NaCl, volume 10 ml/kg. Mice from groups 2 to 5 were injected intraperitoneally with CYP (dissolved in 0.9% NaCl) at a single dose of 150 mg/kg on day 1, injection volume 10 ml/kg. Mice in group 3 were subcutaneously injected with filgrastim (dissolved in 5% glucose), dose 50 μg/kg, once a day, from day 2 to day 4, the first dose 24 hours after CYP injection. Mice in groups 4 and 5 were given Ziptamin at doses of 25 ml/kg and 50 ml/kg from day 1 to day 4, divided into 2 doses/day, 4 hours apart between doses. Mice in the test groups were recorded for weight daily before administering distilled water, test sample, or medication. On day 4, one hour after the filgrastim injection or Ziptamin administration, mice were euthanized with CO2 gas, blood was collected from the heart to determine the leukocyte formula at Medlatec clinic; spleen and thymus were collected, rinsed with cold 0.9% NaCl, dried, weighed, and the relative organ mass was determined using the formula:
[formula] • Where: • Porgan: organ weight (g) • Pbody: body weight (g)
Results are presented as mean±SEM (standard error of mean). Differences between groups were analyzed using Kruskal-Wallis and Mann-Whitney tests with SPSS 26.0 software. A difference was considered statistically significant when the p-value <0.05.

[2] = fluoxetine 6.5 mg/kg once a day, 7 days, female mice, n = 6, 5 minutes recorded
[3] = filgrastim 50 μg/kg day 2 to day 4, CYP 150 mg/kg, blood day 4, n = 8
[4] = filgrastim 50 μg/kg day 2 to day 4, CYP 150 mg/kg, day 4, n = 8

Molecule: CNCCC(Oc1ccc(C(F)(F)F)cc1)c1ccccc1 (stereo not drawn) [Fluoxetin, fluoxetine]
- Time Immobility (mice; [2]): 53.17 ± 29.27 s
- Time Struggling (mice; [2]): 15.33 ± 8.52 s
- Time Swimming (mice; [2]): 231.50 ± 28.25 s
- decrease in immobility time compared to the disease control group (mice; fluoxetine 6.5 mg/kg, p<0.01): 68.66%
- increase in swimming time compared to the disease control group (mice; fluoxetine 6.5 mg/kg, p<0.01): 90.27%
- paddling time relative to the disease control group (mice; fluoxetine 6.5 mg/kg, p>0.05): 1.77 times

B1: filgrastim (protein, UniProt P09919 31-207, looked up)
Granulocyte …: TPLGPASSLPQSFLLKCLEQVRKIQGDGAALQEKLVSECATYKLCHPEELVLLGHSLGIPWAPLSSCPSQALQLAGCLSQLHSGLFLYQGLLQALEGISPELGPTLDTLQLDVADFATTIWQQMEELGMAPALQPTQGAMPAFASAFQRRAGGVLVASHLQSFLEVSYRVLRHLAQP
modifications: filgrastim
- Body weight ([1]; Day 1, filgrastim 50 μg/kg group, n = 8): 19.34 ± 0.97 g
- Body weight ([1]; Day 2, filgrastim 50 μg/kg once a day from day 2, n = 8): 18.19 ± 1.21 g
- Body weight ([1]; Day 3, filgrastim 50 μg/kg once a day from day 2, n = 8): 17.64 ± 1.41 g
- Body weight ([1]; Day 4, filgrastim 50 μg/kg once a day from day 2, n = 8): 17.08 ± 1.52 g
- Ratio WBCC Lympho [1, 3]: 87.26 ± 4.57 %
- Ratio WBCC Mono [1, 3]: 7.00 ± 1.91 %
- Ratio WBCC Neutral [1, 3]: 5.74 ± 2.84 %
- Volume WBC Lympho [1, 3]: 2.26 ± 0.60**^# 10^9/L
- Volume WBC Mono [1, 3]: 0.15 ± 0.10**^# 10^9/L
- Volume WBC Neutral [1, 3]: 0.25 ± 0.13** 10^9/L
- Volume WBC Total WBC [1, 3]: 2.66 ± 0.73**^# 10^9/L
- Relative weight of the spleen [1, 4]: 0.16 ± 0.05 % g/g
- Relative weight of the thymus [1, 4]: 0.06 ± 0.03 % g/g
- total white blood cell count, lymphocyte count, monocyte count, proportion of neutrophils and lymphocytes compared to the disease control group ([1]; filgrastim 50 μg/kg subcutaneously, p<0.05): increase
- weight of the thymus compared to the disease control group ([1]; filgrastim 50 μg/kg, end of the experiment): remained unchanged
